Results reported in patent US7070788 (US Dept. of Health and Human Services, dated 2006).

Columns and labels:
[1] = biological target: hCG (LH/CG) receptor of MA-10 transformed murine Leydig cells (murine, UniProt P30730 27-700); assay: cell-based or functional assay
[2] = biological target: human TSH receptor (CHO-JP09 cells) (human, UniProt P16473 21-764); assay: cell-based or functional assay

Chain of hCG (LH/CG) receptor of MA-10 transformed murine Leydig cells (P30730 27-700): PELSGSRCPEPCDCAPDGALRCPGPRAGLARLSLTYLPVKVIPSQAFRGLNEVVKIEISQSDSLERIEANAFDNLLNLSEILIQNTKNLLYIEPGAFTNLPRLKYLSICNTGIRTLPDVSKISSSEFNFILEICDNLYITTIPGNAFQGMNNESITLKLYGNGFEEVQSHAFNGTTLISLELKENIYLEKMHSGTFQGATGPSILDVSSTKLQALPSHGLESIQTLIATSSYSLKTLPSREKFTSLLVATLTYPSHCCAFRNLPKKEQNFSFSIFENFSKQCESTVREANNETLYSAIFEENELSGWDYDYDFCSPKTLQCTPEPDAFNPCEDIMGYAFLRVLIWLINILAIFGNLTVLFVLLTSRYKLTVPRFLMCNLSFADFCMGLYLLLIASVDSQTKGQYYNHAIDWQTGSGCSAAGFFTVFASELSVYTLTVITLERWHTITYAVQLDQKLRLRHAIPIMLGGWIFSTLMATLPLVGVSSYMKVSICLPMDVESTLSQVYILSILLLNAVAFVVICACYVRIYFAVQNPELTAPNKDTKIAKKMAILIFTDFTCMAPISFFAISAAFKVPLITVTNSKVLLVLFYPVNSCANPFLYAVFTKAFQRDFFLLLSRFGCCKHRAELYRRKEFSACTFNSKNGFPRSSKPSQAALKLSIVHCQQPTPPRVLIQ

B1: wild-type human chorionic gonadotropin (ligand)
chain 1: not shown
chain 2: SKEPLRPRCRPINATLAVEKEGCPVCITVNTTICAGYCPTMTRVLQGVLPALPQVVCNYRDVRFESIRLPGCPRGVNPVVSYAVALSCQCALCRRSTTDCGGPKDHPLTCDDPRFQDSSSSKAPPPSLPSPSRLPGPSDTPILPQ
Progesterone synthesis in MA10 cells, EC50 [1]: 6.9 ng/mL | Progesterone synthesis in MA10 cells, Max (%) [1]: 100 % of WT-hCG

B2: wild-type human thyroid stimulating hormone (ligand)
chain 1: not shown
chain 2: FCIPTEYTMHIERRECAYCLTINTTICAGYCMTRDINGKLFLPKYALSQDVCTYRDFIYRTVEIPGCPLHVAPYFSYPVALSCKCGKCNTDYSDCIHEAIKTNYCTKPQKSY
cAMP stimulation in JP09 cells, EC50 [2]: 6.7 ng/mL | cAMP stimulation in JP09 cells, Relative potency (WT = 1) [2]: 1 fold (WT = 1)
